Measured values reported in the supplement of paper PMC9732359.
± gives the uncertainty stated by the source.

Test: protein stability index of a GFP-peptide fusion (yeast GPS) (PSI 1-4); higher = more stable; sorted into four equal gates, so the index is relative within each strain
Summary of the method: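 Yeast carrying a pooled library were grown to mid-log phase in leucine-free medium. Each library plasmid expresses Cherry and has a tiled 17-residue yeast protein peptide fused downstream of GFP. Cells were sorted into four equal gates by GFP/Cherry ratio, and plasmids from each gate were PCR-amplified, Illumina-sequenced and assigned to strains by barcode. Summing, across gates, the read frequency times the gate number gave each peptide's protein stability index.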

Row | Sequence | protein stability index (doa10∆) | protein stability index (pdr5∆) | protein stability index (san1∆) | protein stability index (ubr1∆)
1 | QRDRHTLAYDRGHRIRR [PRP8] | 3.01 ± 0.1 | 3.21 ± 0.074 | 2.83 ± 0.095 | 2.87 ± 0.048
2 | QRESQIGAAELNENARE [SNF12] | 3.22 ± 0.075 | 3.19 ± 0.063 | 2.93 ± 0.12 | 3.35 ± 0.044
3 | QRGEDDLTFKLADILKA [RPO21] | 2.34 ± 0.082 | 2.61 ± 0.1 | 2.45 ± 0.066 | 2.1 ± 0.046
4 | QRGKMHGLKQLRDSLAD [NUT2] | 3.04 ± 0.077 | 2.67 ± 0.062 | 1.48 ± 0.071 | 2.1 ± 0.06
5 | QRIIKELSIRFPQYKLT [ARP7] | 1.9 ± 0.058 | 1.67 ± 0.089 | 2.12 ± 0.081 | 1.7 ± 0.047
6 | QRKTNGASNGDDSNGGN [BRN1] | 3.12 ± 0.14 | 2.92 ± 0.23 | 3.71 ± 0.17 | 3.64 ± 0.15
7 | QRMHAIHEIDERLAKVN [NNF1] | 1.44 ± 0.093 | 2.59 ± 0.14 | 2.42 ± 0.085 | 2.14 ± 0.061
8 | QRQLLVQQQQQQQLRNQ [SNF5] | 2.2 ± 0.071 | 2.54 ± 0.11 | 2.44 ± 0.19 | 2.6 ± 0.1
9 | QRVRNMRELGLIQSTEF [YOR098C/NUP1] | 2.78 ± 0.12 | 2.03 ± 0.1 | 2.84 ± 0.26 | 2.22 ± 0.12
10 | QSISGTLELSAQFRVPR [SWP82] | 2.46 ± 0.077 | 2.77 ± 0.069 | 2.52 ± 0.084 | 2.79 ± 0.066
11 | QSNEDTFLPSYMKFSNK [RRI2] | 2.84 ± 0.063 | 3.05 ± 0.063 | 3.17 ± 0.052 | 3.18 ± 0.048
12 | QSRVPTSLTSIKWENAF [PRP8] | 3.21 ± 0.077 | 3.3 ± 0.11 | 3.44 ± 0.072 | 3.18 ± 0.048
13 | QSSEDVITIKSRIRVKI [RPB7] | 2.4 ± 0.11 | 2.41 ± 0.075 | 2.51 ± 0.078 | 3 ± 0.12
14 | QSTPQPDDMVEINSVGN [ITC1] | 3.2 ± 0.11 | 3.42 ± 0.043 | 3.04 ± 0.13 | 3.18 ± 0.075
15 | QTDADRVKDPQWLIMLG [RIP1] | 3.19 ± 0.16 | 3.22 ± 0.11 | – | 2.6 ± 0.12
16 | QTFNFDSFENYFNQLKP [RPN12] | 2.76 ± 0.047 | 2.9 ± 0.064 | 3.05 ± 0.052 | 3 ± 0.046
17 | QTIEMITQIVEKDFCTS [SRB8] | 2.86 ± 0.054 | 3.08 ± 0.058 | 2.93 ± 0.047 | 3.02 ± 0.048
18 | QTIPIQIYGFEGLNQRN [YGR119C/NUP57] | 2.64 ± 0.27 | – | 2.52 ± 0.16 | 3.08 ± 0.18
19 | QTLGLESFTEELSNELS [MED1] | 3.29 ± 0.064 | 3.1 ± 0.051 | 3.06 ± 0.05 | 3 ± 0.037
20 | QTLSSHLEALQPLFSTV [PGD1] | 1.96 ± 0.031 | 1.97 ± 0.037 | 2.2 ± 0.052 | 2.49 ± 0.034
21 | QTRAKLLDNEIRIFRSE [RPT5] | 3.15 ± 0.12 | 3.37 ± 0.093 | 3.22 ± 0.051 | 2.95 ± 0.056
22 | QTVRLIKDLQRAINKVL [SIR2] | 2.13 ± 0.057 | 2.03 ± 0.061 | 1.22 ± 0.11 | 2 ± 0.039
23 | QVENMKWDFAKDIKGYG [PRE4] | 2.03 ± 0.078 | 1.54 ± 0.082 | 1.41 ± 0.16 | 1.68 ± 0.049
24 | QVILPMSPNHGTFGGDG [FAS2] | 3.12 ± 0.064 | 3.1 ± 0.057 | 3.18 ± 0.061 | 3.07 ± 0.048
25 | QVNIRFLLHNSEIIDTN [SRB8] | 2.17 ± 0.059 | 2.71 ± 0.057 | 2.79 ± 0.055 | 2.7 ± 0.04
26 | QVPLQQTQAIAQQQQLS [YGR119C/NUP57] | 2.14 ± 0.08 | 2.41 ± 0.076 | 2.15 ± 0.077 | 2.29 ± 0.06
27 | QVPQVRSMSGQPPTNVQ [SNF5] | 2.81 ± 0.05 | 3.03 ± 0.042 | 3.06 ± 0.037 | 2.95 ± 0.035

Row | Sequence | protein stability index (doa10∆) | protein stability index (pdr5∆) | protein stability index (san1∆) | protein stability index (ubr1∆)
28 | QVRKDLGNVIVPNILSL [NUT1] | 2.23 ± 0.1 | 2.55 ± 0.088 | 2.46 ± 0.093 | 2.62 ± 0.07
29 | QVYDLLKRFPKMSVTCN [BRR2] | – | 1.09 ± 0.13 | – | –
30 | QWLIMLGICTHLGCVPI [RIP1] | 1.69 ± 0.067 | 1.37 ± 0.078 | 1.29 ± 0.14 | 1.46 ± 0.089
31 | QWMVSLFNNHLNGILAD [SNF2] | 1.39 ± 0.12 | 1.46 ± 0.11 | 1.37 ± 0.14 | 1.2 ± 0.059
32 | QWRYLYDTQLKVSPEEL [ARP7] | 1.98 ± 0.042 | 1.97 ± 0.042 | 2.08 ± 0.056 | 1.67 ± 0.049
33 | QYESQAPDGSASISLPN [SWP82] | 2.97 ± 0.055 | 2.61 ± 0.05 | 2.92 ± 0.038 | 2.83 ± 0.029
34 | QYILQIVSFIVNCFHED [YJL039C/NUP192] | 1.42 ± 0.061 | 1.91 ± 0.062 | 2.18 ± 0.077 | 2.3 ± 0.057
35 | QYQLLYNLKNDILTNLE [SWI1] | 1.81 ± 0.033 | 1.89 ± 0.037 | 1.74 ± 0.077 | 1.65 ± 0.031
36 | QYSTRHDAPRGLFPFES [SWI3] | 3.14 ± 0.062 | 3.17 ± 0.073 | 3.2 ± 0.077 | 3.13 ± 0.067
37 | RADIVRNIILEARFDVL [ISW2] | 2.66 ± 0.088 | 2.25 ± 0.071 | 2.09 ± 0.11 | 2.51 ± 0.073
38 | RADVEDESNDIDMIADE [RPC37] | 2.95 ± 0.073 | 2.72 ± 0.057 | 2.8 ± 0.08 | 3.27 ± 0.066
39 | RAGMTHEDEKLIPTIFR [PRP8] | 3.19 ± 0.085 | 3.28 ± 0.076 | 3.15 ± 0.049 | 3.19 ± 0.05
40 | RAIYSYLSGAIPNQEVL [YDL116W/NUP84] | 2.4 ± 0.066 | 2.58 ± 0.079 | 2.5 ± 0.089 | 2.76 ± 0.055
41 | RAKAEAAEFRYKYGYDM [SCL1] | 2.85 ± 0.065 | 2.91 ± 0.063 | 2.71 ± 0.058 | 2.57 ± 0.047
42 | RAKAMKFADGFLIHSGQ [RPS3] | 3.4 ± 0.11 | 3.03 ± 0.093 | 3.13 ± 0.061 | 3.22 ± 0.037
43 | RAKKTRALRRALTKFEA [RPL35A] | – | – | – | 3.11 ± 0.15
44 | RALFRQLKRWYWQFNGV [RMP1] | 2.29 ± 0.18 | 1.24 ± 0.12 | 1.19 ± 0.18 | 1.34 ± 0.11
45 | RALSIFSPDGHIFQVEY [PRE6] | 2.97 ± 0.051 | 2.98 ± 0.05 | 3.04 ± 0.032 | 3.1 ± 0.032
46 | RAPKANGALDPKMGVSS [RPO31] | 3.12 ± 0.23 | 3.11 ± 0.16 | 3.05 ± 0.093 | 3.04 ± 0.08
47 | RAQLENEIEGKNEETPQ [RPC25] | – | 3.23 ± 0.14 | 2.47 ± 0.2 | 3.38 ± 0.078
48 | RASLVPGTVLILLAGRF [RPL6A] | 1.67 ± 0.054 | 1.93 ± 0.084 | 1.78 ± 0.1 | 1.75 ± 0.082
49 | RAVANRTDATFIRVIGS [RPT1] | 3.22 ± 0.1 | 3.26 ± 0.069 | 3.17 ± 0.082 | 3.09 ± 0.062
50 | RCMMAAQYFYSGAYSYP [DIS3] | 2.14 ± 0.12 | 2.31 ± 0.11 | 1.81 ± 0.2 | 2.12 ± 0.11
51 | RCTKIIKGNGESDETTT [RPT1] | 3.18 ± 0.14 | – | 3.36 ± 0.038 | 3.54 ± 0.11
52 | RCWKANIPWDVPGMPAP [PRP8] | 2.15 ± 0.081 | 1.5 ± 0.077 | 1.28 ± 0.12 | 2.73 ± 0.18
53 | RDCIDISIFSTPGSVSL [PRP8] | 2.79 ± 0.11 | 2.88 ± 0.11 | 2.45 ± 0.1 | 3.02 ± 0.12
